# From patent EP4680648A1 (dated 2026)
# T1: dog HER3 expressed on CHO-S cells (CHO-dHER3 cells) (dog, UniProt P21860 20-1342 (human entry))
# T1 chain: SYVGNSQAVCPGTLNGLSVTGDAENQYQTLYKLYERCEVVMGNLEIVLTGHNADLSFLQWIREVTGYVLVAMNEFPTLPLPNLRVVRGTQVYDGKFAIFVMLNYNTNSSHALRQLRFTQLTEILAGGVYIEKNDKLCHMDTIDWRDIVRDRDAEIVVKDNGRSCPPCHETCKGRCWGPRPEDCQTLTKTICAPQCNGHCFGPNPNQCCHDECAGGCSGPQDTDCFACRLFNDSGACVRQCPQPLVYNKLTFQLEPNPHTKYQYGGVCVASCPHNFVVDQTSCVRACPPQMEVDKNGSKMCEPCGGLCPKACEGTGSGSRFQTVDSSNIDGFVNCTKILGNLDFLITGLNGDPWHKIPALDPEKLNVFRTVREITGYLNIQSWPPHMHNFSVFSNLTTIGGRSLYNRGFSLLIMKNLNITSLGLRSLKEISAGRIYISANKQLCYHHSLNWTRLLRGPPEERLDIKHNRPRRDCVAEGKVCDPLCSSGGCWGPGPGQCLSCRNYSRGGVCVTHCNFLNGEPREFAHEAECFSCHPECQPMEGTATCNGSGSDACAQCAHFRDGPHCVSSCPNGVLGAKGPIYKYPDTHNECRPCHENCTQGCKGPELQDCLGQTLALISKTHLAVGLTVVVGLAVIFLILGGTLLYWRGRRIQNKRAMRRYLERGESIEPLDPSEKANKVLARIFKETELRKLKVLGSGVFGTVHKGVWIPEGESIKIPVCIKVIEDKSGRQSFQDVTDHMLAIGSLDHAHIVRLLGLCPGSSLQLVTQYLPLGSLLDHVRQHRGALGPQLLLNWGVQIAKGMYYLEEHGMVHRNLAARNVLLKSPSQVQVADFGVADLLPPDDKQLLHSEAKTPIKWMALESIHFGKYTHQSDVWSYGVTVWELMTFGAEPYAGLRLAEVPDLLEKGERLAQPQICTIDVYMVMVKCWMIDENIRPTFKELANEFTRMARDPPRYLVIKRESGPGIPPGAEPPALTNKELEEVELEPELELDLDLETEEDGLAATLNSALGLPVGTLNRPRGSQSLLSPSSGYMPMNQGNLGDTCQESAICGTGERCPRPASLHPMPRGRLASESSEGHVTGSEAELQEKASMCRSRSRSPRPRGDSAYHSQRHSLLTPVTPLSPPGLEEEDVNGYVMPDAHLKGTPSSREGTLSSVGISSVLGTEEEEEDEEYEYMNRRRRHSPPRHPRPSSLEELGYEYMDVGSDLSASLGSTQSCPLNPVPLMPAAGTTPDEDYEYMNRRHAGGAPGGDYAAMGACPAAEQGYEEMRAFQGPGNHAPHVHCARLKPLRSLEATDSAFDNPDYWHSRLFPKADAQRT
# T2: monkey (Macaca fascicularis) HER3 expressed on CHO-S cells (CHO-fasHER3 cells) (monkey (Macaca fascicularis), UniProt P21860 20-643 (human entry))
# T2 construct: also called monkey HER3
# T2 chain: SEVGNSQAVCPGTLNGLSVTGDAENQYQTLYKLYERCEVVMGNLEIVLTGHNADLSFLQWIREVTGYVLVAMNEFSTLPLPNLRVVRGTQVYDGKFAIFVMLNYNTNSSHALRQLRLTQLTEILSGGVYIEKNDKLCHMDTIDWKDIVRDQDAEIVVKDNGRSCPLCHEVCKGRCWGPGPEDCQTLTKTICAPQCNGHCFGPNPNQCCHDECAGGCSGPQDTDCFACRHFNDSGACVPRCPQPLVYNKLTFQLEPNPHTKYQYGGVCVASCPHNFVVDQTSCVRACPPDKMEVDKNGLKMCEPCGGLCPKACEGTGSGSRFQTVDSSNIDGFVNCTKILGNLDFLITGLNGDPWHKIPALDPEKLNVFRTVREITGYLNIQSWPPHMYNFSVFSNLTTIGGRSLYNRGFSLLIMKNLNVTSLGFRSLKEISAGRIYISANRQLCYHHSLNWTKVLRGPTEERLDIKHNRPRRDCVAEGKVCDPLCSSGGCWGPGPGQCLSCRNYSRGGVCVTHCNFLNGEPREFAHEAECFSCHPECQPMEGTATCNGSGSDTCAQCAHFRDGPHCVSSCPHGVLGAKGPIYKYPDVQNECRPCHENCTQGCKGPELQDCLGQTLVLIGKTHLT
# Key:
# [1] = biological target: T1, dog HER3 expressed on CHO-S cells …; assay: flow cytometry on CHO-dHER3 cells
# [2] = biological target: human HER3 expressed on CHO-S cells (CHO-hHER3 cells) (human, UniProt P21860 20-643); assay: flow cytometry on CHO-hHER3 cells
# [3] = biological target: T2, monkey (Macaca fascicularis) HER3 …; assay: flow cytometry on CHO-fasHER3 cells
# [4] = biological target: T3, His-tagged human HER3 protein (hHER3, ACRO Biosystems Inc., Cat#: ER3-H5223) (human, UniProt P21860 20-643); assay: SPR (Biacore 8K), antibody captured on Protein A chip, His-tagged hHER3 as analyte
# T3 construct: Bought protein; also called hHER3-His; not shown: His tag
# [5] = biological target: mouse HER3 expressed on CHO-S cells (CHO-mHER3 cells) (mouse, UniProt Q61526 20-641); assay: flow cytometry on CHO-mHER3 cells
# [6] = biological target: T3, His-tagged human HER3 protein (hHER3, …); assay: SPR (Biacore 8K), antibody captured on Protein A chip, His-tagged HER3 as analyte
# mouse HER3 expressed on CHO-S cells (CHO-mHER3 cells), sequence (Q61526 20-641): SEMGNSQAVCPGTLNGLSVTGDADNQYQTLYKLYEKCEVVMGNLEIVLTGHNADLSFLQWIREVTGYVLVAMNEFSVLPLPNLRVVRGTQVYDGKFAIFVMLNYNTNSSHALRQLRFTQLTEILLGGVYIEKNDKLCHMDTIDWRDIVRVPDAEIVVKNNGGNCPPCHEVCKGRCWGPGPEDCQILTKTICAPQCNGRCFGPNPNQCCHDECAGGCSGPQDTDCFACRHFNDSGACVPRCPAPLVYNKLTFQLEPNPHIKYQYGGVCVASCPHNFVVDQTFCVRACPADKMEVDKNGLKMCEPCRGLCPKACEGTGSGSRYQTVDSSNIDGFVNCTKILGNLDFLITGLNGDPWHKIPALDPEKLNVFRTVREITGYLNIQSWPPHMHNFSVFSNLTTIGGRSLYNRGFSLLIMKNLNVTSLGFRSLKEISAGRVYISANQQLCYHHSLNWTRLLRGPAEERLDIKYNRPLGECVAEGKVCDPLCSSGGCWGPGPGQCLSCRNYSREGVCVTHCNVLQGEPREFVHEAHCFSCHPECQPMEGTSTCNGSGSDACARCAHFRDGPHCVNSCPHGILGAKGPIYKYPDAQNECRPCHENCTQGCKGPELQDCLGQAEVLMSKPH
Binder,binding result [1],binding result [2],binding result [3],binding result [4],binding result [5],binding result [6]
"anti-HER3 antibody 1C5 (antibody, human IgG1, V domains shown, common light chain) VH: QVQLVESGGGVVQPGKSLRLSCAASGFTFSRSGMHWVRQAPGKGLEWVALISFDGSNKYYADSVKGRFTISRDNSKNTLNLQMNSLRAEDTAVYYCAKGGFGVVIYDAFDIWGHGTMVTVSS VL: not shown",binds,binds,binds,binds,–,–
"anti-HER3 antibody 1D6 (antibody, human IgG1, V domains shown, common light chain) VH: EVQLVQSGPGLVKPSETLSLTCTVSGGSISSNNYYWAWIRQPPGKGLEWIGSLYYTGRAYYKSSLKSRVTISVDTSNDQFSLRLTSVTAADTAIYYCARHDCGNTCLNWFDRWGQGTLVTVSS VL: not shown",binds,binds,binds,–,binds,binds
"anti-HER3 antibody 3G6 (antibody, human IgG1, V domains shown, common light chain) VH: QVQLVQSGPVLVKPTETLTLTCTVSGFSLSNIRMGVSWIRQPPGKALEWLAHIFSNDDKSYSTSLKSRLTISKDTSKSQVVLTMTNVDPVDTATYYCTRMRYSGGPFDYWGQGTLVTVSS VL: not shown",binds,binds,binds,binds,binds,–

# Results, then the binder that gave them:
binding result [1],binding result [2],binding result [3],binding result [4],binding result [5],binding result [6],Binder
binds,binds,binds,binds,binds,–,"anti-HER3 antibody 1B2 (antibody, V domains shown, common light chain) VH: QVQLVQSGPVLVKPTETLTLTCTVSTFSLSNARMGVSWIRQPPGKALEWLAHIFSNDDKSYSPSLKSRLTISKDTSKTQVVLTMTNMDPVDTATYYCSRMRYSGGPFDYWGQGSLVTVSS VL: not shown"
binds,binds,binds,binds,binds,–,"anti-HER3 antibody 3E1 (antibody, human IgG1, V domains shown, common light chain) VH: EVQLVQSGPVLAKPTETLTLTCTVSGFSLSNIRMGVSWIRQPPGKALEWLAHIFSNDDKSYSPSLKNRLTISKDTSKSQVVLTMTTMDPMDTATYYCTRMKYSGGPFDYWGQGTLVTVSS VL: not shown"
